According to patent publication US20220348617A1 (H LEE MOFFITT CANCER CENTER AND RESEARCH INSTITUTE, published 2022):

Assays:
Notch1 EGF domains 6-13 = biological target: T1, Notch1 EGF domains 6-13 (human, UniProt P46531 218-526); assay: SPR, Notch immobilised, DLL4 flowed
T1 construct: domain: EGF domains 6-13; Immobilised on a streptavidin sensor chip; the other passages say only 'Notch 1'
Method: Binding affinities between DLL4 variants and Notch receptor subtypes were determined by surface plasmon resonance (SPR) (FIG. 7). Notch1 EGF domains 6-13, Notch2, EGF domains 6-13, or Notch 3 EGF domains 5-12 were immobilized on a sensor chip and various concentrations of DLL4 ligands were injected over the surface. A co-culture assay was used to monitor the inhibition of Notch signaling by DLL4.v3 (FIG. 8). A fluorescent Notch1 reporter cell line (CHO^N1) was co-cultured with 293T cells expressing wild-type human DLL4 (293TDLL4) in 96-well plates to activate signaling. This value was normalized to 100% Notch1 activation. A reduction in Notch1 activation was observed upon the addition of increasing concentrations of DLL4.v3 (20 nM, 200 nM, 2000 nM) to the co-cultures.

Notch 3 EGF domains 5-12 = biological target: T2, Notch 3 EGF domains 5-12 (human, UniProt Q9UM47 197-505); assay: SPR, Notch on streptavidin chip, DLL4 flowed
T2 construct: domain: EGF domains 5-12; the other passages say only 'Notch 3'
T2 sequence (looked up): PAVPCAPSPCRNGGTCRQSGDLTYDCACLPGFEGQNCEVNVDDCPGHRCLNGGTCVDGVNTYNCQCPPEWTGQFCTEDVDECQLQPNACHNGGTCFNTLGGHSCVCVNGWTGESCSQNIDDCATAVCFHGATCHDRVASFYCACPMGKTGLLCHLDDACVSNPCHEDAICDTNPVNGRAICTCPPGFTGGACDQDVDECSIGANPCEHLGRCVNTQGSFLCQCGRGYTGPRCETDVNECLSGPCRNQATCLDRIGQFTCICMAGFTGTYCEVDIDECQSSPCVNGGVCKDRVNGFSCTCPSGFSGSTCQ

B1: wildtype (WT) human DLL4 (ligand)
chain: SGVFQLQLQEFINERGVLASGRPCEPGCRTFFRVCLKHFQAVVSPGPCTFGTVSTPVLGTNSFAVRDDSSGGGRNPLQLPFNFTWPGTFSLIIEAWHAPGDDLRPEALPPDALISKIAIQGSLAVGQNWLLDEQTSTLTRLRYSYRVICSDNYYGDNCSRLCKKRNDHFGHYVCQPDGNLSCLPGWTGEYCQQPICLSGCHEQNGYCSKPAECLCRPGWQGRLCNECIPHNGCRHGTCSTPWQCTCDEGWGGLFCDQDLNYCTHHSPCKNGATCSNSGQRSYTCTCRPGYTGVDCE
notes: Soluble protein flowed over immobilised Notch in SPR; also called wild-type DLL4
Notch1 EGF domains 6-13
  binding result: binds
Notch 3 EGF domains 5-12
  binding result: binds
